Assay: yeast display, Sf9 membrane polyspecificity reagent, FACS + sequencing; frameworks hold sequencing errors
Outline: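 A synthetic nanobody library was expressed on Saccharomyces cerevisiae BJ5465 by galactose induction for 36–48 hours. The library was stained for 1 hour at 4 °C with 10% biotinylated, detergent-solubilized Sf9 membrane reagent and enriched with streptavidin microbeads before FACS. Low and high (top ~1%) gates were set on anti-HA fluorescence for expression and streptavidin fluorescence for reagent binding, and each polyreactivity label reflects the gate of origin.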
In the case of “QVQLVESGGGLVQAGGSLRLSCAASGRTLNDYAMEWYRQAPGKERELVAGITSGDSTYYADSVKGRFTISRDNAKNTVYLQMNSLIPEDTAVYYCAADSDTFYYTGYDYDYWGQGTQVTVSS”, the “polyreactivity (PSR sort gate)” value is reported as “low polyreactivity”.
For “QVQLVESGGGLVQAGGSLRLSCAASGRTLPANGMGWYRQAPGKQREFVAAINWRGGITYYADSVKGRFTISRDNSKNTVYLQMNSLNPEDTAVYYCARLRYFLLNGSLRYGTSDRDYWGQGTQVTVSS”, the “polyreactivity (PSR sort gate)” value was “high polyreactivity”.
For “QVQLVESGGGLVQAGGSLRLSCAASGRTLPFYAMGWYRPAPGKERELVAAISRSGARTYYADSVKGRFTISRDHAKNTVYLQMNSLKPEDTAVYYFAAGFMWYIGNSKFDYWGQGTQVTVSS”, the “polyreactivity (PSR sort gate)” value was “high polyreactivity”.
With “QVQLVESGGGLVQAGGSLRLSCAASGRTLPINAMGWYIEAPGKERELVAAISTSGTRTYYADSVKGRFTISRDNAKNTVYLQMNSLKPEDTAVYYCNKDYWKVRSYDYCGQGTQVTVSS” the “polyreactivity (PSR sort gate)” value was “low polyreactivity”.
For “QVQLVESGGGLVQAGGSLRLSCAASGRTLPYNAMAWYRQAPGKESELVAAITWSGGRTYYADSVKGRFTISRDNAKNTVYLQMNSLKPEDTAVYYCAAGKSSYGKPKYYYWGQGTQVTVSS”, the “polyreactivity (PSR sort gate)” value was “high polyreactivity”.
With “QVQLVESGGGLVQAGGSLRLSCAASGRTLQSYAMGWYRQAPGKERELVAAITSTGTTYYADSVKGRFTISRDNAKNTVYLQMNSLKPEDTAVYYCAAGGSIVLGHYHYVKMYYWGQGTQVTVSS” the “polyreactivity (PSR sort gate)” value was “high polyreactivity”.
In the case of “QVQLVESGGGLVQAGGSLRLSCAASGRTLQTYVMGWYRQAPGKERELVAAITRGGGSTYYADSVKGRFTISRDNAKNTVYLQMNSLKPEDTAVYYCAASALRFNSRFSHWYNYWGQGTQVTVSS”, the “polyreactivity (PSR sort gate)” value is reported as “high polyreactivity”.
In the case of “QVQLVESGGGLVQAGGSLRLSCAASGRTLRGNAMGWYRQAPGKERELVAGITSGGSTNYADSVKGRFTISRDNAKNTVYLQMNSLKPEDTAVYYCAAAYYLSFGRYYTNYDYWGQGTQVTVSS”, the “polyreactivity (PSR sort gate)” value is reported as “high polyreactivity”.
In the case of “QVQLVESGGGLVQAGGSLRLSCAASGRTLRLYAMGWSRQAPGKERELVAAISSRGRTYYADSVKGRFTISRDNAKNTVYLQMNSLKPEDTAVYYCNTAQFLREDYWGQGTQVTVSS”, the “polyreactivity (PSR sort gate)” value is reported as “high polyreactivity”.
With “QVQLVESGGGLVQAGGSLRLSCAASGRTLRPYAMGWYRQAPGKEREFVAAIRWSGGSTYYADSVKGRFTISRDNAKNTVYLQMNSLKPEDTAVYYCAASFLTYYLSLYDYWGQGTQVTVSS” the “polyreactivity (PSR sort gate)” value was “high polyreactivity”.
With “QVQLVESGGGLVQAGGSLRLSCAASGRTLRRYAMGGYRQAPGKERELVAAISSGVSTNYADSVKGRFTISRDNAKNTVYLQMNSLKPEDTAVYYCNKKRPVYALSIVPYYSWGQGTQVTVSS” the “polyreactivity (PSR sort gate)” value was “high polyreactivity”.
For “QVQLVESGGGLVQAGGSLRLSCAASGRTLSANAMGWYRQAPGKERELVATISTRGGRTYYADSVKGRFTISRDNAKNTVYLQMNSLKPEDTAVYYCARLPPGDMDYWGQGTQVTVSS”, the “polyreactivity (PSR sort gate)” value was “low polyreactivity”.
In the case of “QVQLVESGGGLVQAGGSLRLSCAASGRTLSGYAMGWYRQAPGKERELVAAISRRGGRTYYADSVKGRFTISRDNAKNTVYLQMNSLKPEDTAVYYCAAQVYTKTGDWQFYYWGQGTQVTVSS”, the “polyreactivity (PSR sort gate)” value is reported as “high polyreactivity”.
With “QVQLVESGGGLVQAGGSLRLSCAASGRTLSGYVMGWYRQAPGKERELDAAIDWSGGTTYYADSVKGRFTISRDTAKNTVYVQMNSLKPEDTAVYYCAAEVLSWLYWPYYYWGQGSQVTVSS” the “polyreactivity (PSR sort gate)” value was “high polyreactivity”.
In the case of “QVQLVESGGGLVQAGGSLRLSCAASGRTLSRNAMGWYRQAPGKEREFVAAISQRGGSTYYADSVKGRFTISRDNAKNTVYLQMNSLKPEDTAVYYCARRYNAQDYARFDYWGQGTQVTVSS”, the “polyreactivity (PSR sort gate)” value is reported as “high polyreactivity”.
With “QVQLVESGGGLVQAGGSLRLSCAASGRTLSRYTMGWYRQAPGKERELVAAISTSGSTYYADSVKGRFTISRDNAKNTVYFQMNSLKPEDTAVYYCNAVRRFLQYATGYDYWRQGTQVTVSS” the “polyreactivity (PSR sort gate)” value was “high polyreactivity”.
With “QVQLVESGGGLVQAGGSLRLSCAASGRTLSTNGMGWYRQAPGKERELVATITRRGGRTYYADSVKGRFTISRDNAKNTVYLQMNSLKPEDTAVYYCATEQADRRVTYNYWGQGTQVTVSS” the “polyreactivity (PSR sort gate)” value was “high polyreactivity”.
In the case of “QVQLVESGGGLVQAGGSLRLSCAASGRTLTIYAMGWYRQAPGKERELVATIRSSGSTNYADSVKGRFTISRDNAKNTVYLQMNSLKPEDTAVYYCSARGFYPTNVGKYNYWGQGTQVTVSS”, the “polyreactivity (PSR sort gate)” value is reported as “high polyreactivity”.
In the case of “QVQLVESGGGLVQAGGSLRLSCAASGRTLTLNAMGWYRQAPGKERELVAAISGSGGRTFYADSVKGRFTISRDNAKNTVYLQMNSLKPEDTAVYYCAADYFYLKWYEYWGQGTQVTVSS”, the “polyreactivity (PSR sort gate)” value is reported as “high polyreactivity”.
For “QVQLVESGGGLVQAGGSLRLSCAASGRTLTRYTMGWYRQAPGKERELVATISRSGGNTHYADSLKGRFTISRDNAKNTVYFQMNSLKPEDTAVFYCNAVRYAIYGYDYWGQGTQVTVSS”, the “polyreactivity (PSR sort gate)” value was “high polyreactivity”.
With “QVQLVESGGGLVQAGGSLRLSCAASGRTLTYNVMGWYRQAPGKERELVASISSSGSSTHYADSVKGRFTISRDNAKNTVYLQMNSLKPEDTAVYYCAVEFWRPFWTRFDYWGQGTQVTVSS” the “polyreactivity (PSR sort gate)” value was “high polyreactivity”.
For “QVQLVESGGGLVQAGGSLRLSCAASGRTLVSYAMGWYRQAPGKERELVATISWSGGSTYYADSVKGRFTISRDNAKNTVYLQMYSLKPEDTAVYYCNRSLTGYDELGYPVPYTYDYWGQATQVTVSS”, the “polyreactivity (PSR sort gate)” value was “low polyreactivity”.
For “QVQLVESGGGLVQAGGSLRLSCAASGRTLWVYAMGWYRQAPGKERELVAAITSSGVSTDYADSVKGRFTISRDNAKNTVYLQINSLKPEDTAVYYCAKRYWSRYAQYDYWGQGTQVTVSS”, the “polyreactivity (PSR sort gate)” value was “low polyreactivity”.
For “QVQLVESGGGLVQAGGSLRLSCAASGRTLWYYTMGWYRQAPGKERELVADITRGTSTNYADSVKGRFTISRDNAKNTVYLQMNSLKPEDTAVYSCNRAHGRSRYSRDYDSWGQGTQVTVSS”, the “polyreactivity (PSR sort gate)” value was “low polyreactivity”.
For “QVQLVESGGGLVQAGGSLRLSCAASGRTLYINAMGWYRQAPGKERELVAAIRRGGSTYADSVKGRFTISRDNAKNTVYLQMNSLKPEDTAVYYCAADVPRGKYKGDYWGQGTQVTVSS”, the “polyreactivity (PSR sort gate)” value was “high polyreactivity”.
With “QVQLVESGGGLVQAGGSLRLSCAASGRTLYLYAMGWYRQAPGKERELVAAITYGGGSTYYADSVKGRFTISRDNAKNTVYLQMNSLKPEDTAVYYCNAPGDGYLYDHTYDYWGQGTQVTVSS” the “polyreactivity (PSR sort gate)” value was “low polyreactivity”.
In the case of “QVQLVESGGGLVQAGGSLRLSCAASGRTLYLYAMGWYRQAPGKERELVAGITWSGGSTYYADSVKGRFTISRDNAKNTVYLQMNSLKPEDTAVYYCAAVSYPDYDYWGQGTQVTVSS”, the “polyreactivity (PSR sort gate)” value is reported as “low polyreactivity”.
In the case of “QVQLVESGGGLVQAGGSLRLSCAASGRTLYNYTMGWYRQAPGKERELVATINFSGGSTYYADSVKGRFTISRDNAKNTVYLQMNSLKPEDTAVYYCNARGYHYAYKGAYLGDDYWGQGTQVTVSS”, the “polyreactivity (PSR sort gate)” value is reported as “low polyreactivity”.
For “QVQLVESGGGLVQAGGSLRLSCAASGRTLYRYAMGWYRQAPGKERELVAAIRSGGRTNYADSVKGRFTISRDNAKNTVYLLMNSLKPEDTAVYYCAARTLRYPSTYDYWGQGTQVSVSS”, the “polyreactivity (PSR sort gate)” value was “high polyreactivity”.
In the case of “QVQLVESGGGLVQAGGSLRLSCAASGRTLYWYAMGWYRQAPGKEREFVAAITWRGGSTSYADSVKGRFTISRDNAKNTVYLQMNSLKPEDTAVYYCAASSFRSYYSGKYDYWGQGTQVTVSS”, the “polyreactivity (PSR sort gate)” value is reported as “high polyreactivity”.
In the case of “QVQLVESGGGLVQAGGSLRLSCAASGRTNKSNTLGWYRQEPGKQMELVAAISWRVGSTYYADSVKGRFTISRDNAKNTVYLQMNSLKPEDTAVYYCAARPWGYTVGSNYRYYLYGYWGLGTQVTVSS”, the “polyreactivity (PSR sort gate)” value is reported as “high polyreactivity”.
For “QVQLVESGGGLVQAGGSLRLSCAASGRTSARYGMGWYRQAPGKERELVASIRRSGDSTYYADSVKGRFTISRDNAKNTVYLQLNSLKPEDTAVYYCAAGGKQGKRDYWGQGTQVTVSS”, the “polyreactivity (PSR sort gate)” value was “low polyreactivity”.
With “QVQLVESGGGLVQAGGSLRLSCAASGRTSFWNAMGWYRQAPGKERELVAAISASVGRTYYADSVKGRFTISRDNAKNTVYLQMNSLKPEDTAVYYCAKVYHAGTGYPSLGLDYWGQGTQVTVSS” the “polyreactivity (PSR sort gate)” value was “low polyreactivity”.
With “QVQLVESGGGLVQAGGSLRLSCAASGRTSGFNTMGWYRQAPGKESELVAAISFSGGSTYYADSVKGRFTISRDNAKNTVYLHMNSLKPEDTAVYYCNALYRYLYRSGDYWGQGTQVTVSS” the “polyreactivity (PSR sort gate)” value was “low polyreactivity”.
In the case of “QVQLVESGGGLVQAGGSLRLSCAASGRTSGRYALGWYRQAPGKERELVAAITSSGGSTYYADSVKGRFTISRDTAKNTVYLQMNSLKPEDTAVYYCAAYFRGTGLDRSYKYDYWGQGTQVTVSS”, the “polyreactivity (PSR sort gate)” value is reported as “high polyreactivity”.
With “QVQLVESGGGLVQAGGSLRLSCAASGRTSGVYAMGWYRQAPGKERELVAAITSDSTYYADSVKGRFTISRDNAKNTVYLQMNSLKPEDTAVYYCAADSLARRYDYWGQGTQVTVSS” the “polyreactivity (PSR sort gate)” value was “low polyreactivity”.
With “QVQLVESGGGLVQAGGSLRLSCAASGRTSIWNSMGWYRQAPGKERELVASISWSGGSTYYADSVKGRFTISRDNAKNTVYLQMNSLKPEDTAVSYCAKTAYFLVFNEHLHNKRYDSWGQGTQVTVSS” the “polyreactivity (PSR sort gate)” value was “low polyreactivity”.
For “QVQLVESGGGLVQAGGSLRLSCAASGRTSNIYAMGWYRQAPGKERELVAAIRTGGSTNYADSVKGRFTISRDNAKNSVYLQMNSLKPEDTAVYYCAATSRRSRPAEEYWGQGTQVTVSS”, the “polyreactivity (PSR sort gate)” value was “high polyreactivity”.
With “QVQLVESGGGLVQAGGSLRLSCAASGRTSRNNVMGWYRQAPGKERELVAAITKRTDRTYYADSVKGRFTISRDNAKNTVYLQMNSLKPEDTAVYYCAADLSLSTGGRAFPTYGYWGQGTQVTVSS” the “polyreactivity (PSR sort gate)” value was “high polyreactivity”.
In the case of “QVQLVESGGGLVQAGGSLRLSCAASGRTSRQYAMGWYRQAPGKEREFVAAITWSDSGTYYADSVKGRFTISRDNAKNTVYLQMNSLKPEDTAVYYCAAERYLSFDRYLYEYYYWGQGTQVTVSS”, the “polyreactivity (PSR sort gate)” value is reported as “low polyreactivity”.
